Columns and labels:
delta7 mice [1] = assay: In vivo masseter muscle function (maximum force, force frequency response); conditions: GYM329 3 mg/kg SC weekly, PND52
Excerpt: To assess masseter function, the mouse was anesthetized via inhalation (˜4-5% isoflurane, or to effect) and placed on a thermostatically controlled table where anesthesia was maintained via nose-cone (˜2% isoflurane, or to effect). The mouse was placed supine with custom designed restraint to ensure accessibility of the jaw for testing. The lever arm of the 305C muscle lever system (Aurora Scientific Inc., Aurora, CAN) was positioned in the diastema of the mandible and a suture was run under the middle lower incisors of the mouse and attached to the lever arm. The masseter was contracted by electrical stimulation using surface electrodes.
(§1) On both muscles, a force frequency response was performed. Briefly, a series of stimulations were performed at increasing frequency of stimulation (0.2 ms pulse, 500 ms train duration): 1, 10, 20, 40, 60, 80, 100, and 150 Hz, followed by a final stimulation at 1 Hz.
(§2) Muscle function data were analyzed using Aurora Scientific 615A Dynamic Muscle Analysis Software Suite in high-throughput mode. The software automatically determines a baseline, a maximum, and a minimum. The baseline is then subtracted from the maximum to give the maximal generated force. Each data file was manually inspected to ensure that cursors and fits were assigned properly and corrected when necessary. Data were then grouped and means and standard error of the mean (SEM) calculated. In the plantarflexor muscle group, results were presented as torque, expressed in the unit mN·m, since the assay measures the force produced by the gastrocnemius rotating about the ankle. Force was directly measured in the masseter, expressed in the unit gram.

[2] = Tolerability study in healthy adult subjects; assay type: in vivo, human; conditions: at AUC of 385 μg×d/mL
delta7 mice [3] = assay: In vivo plantarflexor muscle function (maximum torque, force frequency response); conditions: PND52
Procedure: Hind limb muscle performance was measured in vivo with a 305C muscle lever system (Aurora Scientific Inc., Aurora, CAN). Mice were anesthetized via inhalation (˜4-5% isoflurane, or to effect) and placed on a thermostatically controlled table where anesthesia was maintained via nose-cone (˜2% isoflurane, or to effect). Hair was removed from the lower leg by application of depilatory cream for 3 minutes, followed by thorough rinsing
with physiological buffer. The leg was then wiped with a 5% povidone-iodine solution followed by 70% isopropyl alcohol. The knee was isolated using a pin through the tibial head and the foot firmly fixed to a footplate on the motor shaft. Contractions were elicited in the gastrocnemius by percutaneous electrical stimulation of the sciatic nerve.
as §1, §2

delta7 mice [4] = assay: Plantarflexor histology: muscle fiber typing and cross-sectional area; assay type: in vivo; conditions: GYM329 3 mg/kg SC weekly
Procedure: Plantarflexor (gastrocnemius, plantaris, and soleus) samples frozen for histology were embedded in cryomatrix on a soft cork surface to enable easy sectioning. Briefly, frozen and embedded tissues were mounted in a cryotome and serially sectioned (10 μm thickness) perpendicular to the fiber axis. Multiple slices (5-10) were taken at different portions of the muscle. The slices were then fixed in ice-cold paraformaldehyde and stored at −80° C. until further use.
For cross-sectional area determination, fixed sections from the mid-belly of the muscle were stained with wheat germ agglutinin (WGA) conjugated to a fluorophore to visualize cell membranes. Sections were digitized using fluorescent microscopy, cell boundaries were traced using predictive software, and cross-sectional area was determined via unbiased automated measurements. For muscle fiber type determination, histological slices were taken from the mid-belly of the soleus and the gastrocnemius muscle. The fixed tissue sections were then blocked using SuperBlock PBS blocking buffer (Thermo Fisher) for 1 h at room temperature. The slide was then washed with PBS and covered with a primary antibody against either MyHC-I, MyHC-IIa, or MyHC-IIb (1:20 dilution; Developmental Studies Hybridoma Database) and incubated overnight at 4° C. The slide was then washed with PBS and the appropriate secondary antibody added for 1 h at room temperature. The slide was washed again in PBS, covered in mounting solution, and a coverslip used to seal the tissue section for fluorescence microscopy measures. Fluorescently-labeled tissue sections were digitized using a fluorescence microscope (Nikon). Images were then analyzed for number of cells using standard counting software.

delta7 mice [5] = assay: Body weight and muscle weights at PND52 in pharmacological mouse model of SMA; assay type: in vivo
Excerpt: The mouse model of SMA (pharmacological model) that has been used in the preclinical trial herein is the delta7 mice treated with a sub-maximal dose of the SMN-upregulating compound SMN-C1 as described in Naryshkin et al, Science 345, 688-693, 2014. […] The advantage of this model is that it has a more severe phenotype than existing mild models but lives into adulthood, which enables testing SMA treatments after disease onset. […] (1) a monotherapy, (2) as a combination therapy with an SMN-upregulating compound administered at the onset of disease, and (3) in a mild model of SMA was don. Dosing of the myostatin inhibitor began at PND24 and continued for 28 days until PND52. In all of these models, GYM329 was administrated once per week at 3 mg/kg (4 subcutaneous injections). A cohort of wild type (WT) littermates treated with the vehicle was included as a reference group. At the study's conclusion, in vivo muscle force frequency, muscle weight, muscle histopathology, bone morphometry, and voluntary running were assessed.
The pharmacological model was generated by treating delta7 mice [FVB.Cg-Tg(SMN2*delta7)4299Ahmb Tg(SMN2)89Ahmb, homozygous knockout mice completely lacking mouse Smnl] with a dose of an SMN-upregulating compound, SMN-C1. For CH1 and CH2, the mice were given a suboptimal dose of SMN-C1 (0.1 mg/kg daily) for the duration of the study. For CH3 and CH4, mice were given a suboptimal dose of SMN-C1 (0.1 mg/kg daily) from PND1-23 and switched to a higher dose (3 mg/kg daily) from PND24-52. For CH5 and CH6, mice were treated with a higher dose of SMN-C1 (3 mg/kg daily) for the duration of the study. Wild type (WT) mice [FVB.Cg-Tg(SMN2*delta7)4299Ahmb Tg(SMN2)89Ahmb, homozygous for the mouse Smnl gene] were used as a reference.
Statistical analysis was performed using SigmaPlot v11. Muscle performance data were analyzed using a two-way repeated measures ANOVA. Post-hoc analysis for pairwise comparisons was performed with a Holm-Sidak test. Body weights, muscle weights, muscle fiber typing data, and cortical and trabecular bone data were analyzed using a one-way ANOVA, with post-hoc analysis performed with a Holm-Sidak test. Data
Body weights were taken daily for SMA mice and weekly for WT mice.

delta7 mice [6] = assay: Bone microCT of the tibia (cortical and trabecular parameters); assay type: in vivo; conditions: GYM329 3 mg/kg SC weekly
Procedure: Bone microCT scans were performed in tibias collected at PND52. There was no effect of treatment on cortical or trabecular parameters (FIG. 7 & FIG. 8).

[7] = delta 7 mice + low to high dose SMN-C1 (0.1 mg/kg PND1-23, 3 mg/kg PND24-52)
[8] = delta 7 mice + high dose SMN-C1 (3 mg/kg PND1-52)
[9] = delta 7 mice + high dose SMN-C1 (3 mg/kg PND1-52), vs SMA Vehicle
[10] = delta 7 mice + low dose SMN-C1 (0.1 mg/kg PND1-52)
[11] = delta 7 mice + high dose SMN-C1 (3 mg/kg PND1-52), GYM329 3 mg/kg SC weekly, PND52, vs SMA Vehicle
[12] = PND52, delta 7 mice + low dose SMN-C1 (0.1 mg/kg PND1-52)

B1: GYM329: anti-myostatin antibody binding latent myostatin; CDRs SEQ ID 1-6, VH SEQ ID 7, VL SEQ ID 8, heavy chain SEQ ID 9, light chain SEQ ID 10 (antibody)
heavy: QVQLVESGGGLVQPGGSLRLSCAVSGIDLSHDDISWVRQAPGKGLEWVSIISYAGSTYYASWAKGRLTISKDTSKNQVVLTMTNMDPVDTATYYCARGVPAYSHGGDLWGQGTLVTVSSASTKGPSVFPLAPSSKSTSGGTAALGCLVKDYFPEPVTVSWNSGALTSGVHTFPAVLQSSGLYSLSSVVTVPSSSLGTQTYICNVNHKPSNTKVDKKVEPKSCDKTHTCPPCPAPEYLGGDSVFLFPPKPKDVLMISRTPEVTCVVIDVSHEDPEVKFNWYVDGVEVHNAKTKPREEQYNSTYRVVSVLPVLHRDWLNGKEYKCKVSNKALPKPIEKTISKAKGQRREPQVYTLPPSREEMTKNQVSLTCLVKGFYPSDIAVEWESNGQPENNYKTTPPVLDSDGSFFLYSKLTVDKSRWQQGNVFSCSVLHEALHAHTTRKELSLSP
light: DIVMTQSPATLSLSPGERATLSCTTSQSVYHENWLSWFQQKPGQPPKLLIYWASTLAYGVPSRFSGSGSGTDFTLTISSLQPEDAATYYCAGGYGGGRYAFGQGTKVEIKRTVAAPSVFIFPPSDEQLKSGTASVVCLLNNFYPREAKVQWKVDNALQSGNSQESVTEQDSKDSTYSLSSTLTLSKADYEKHKVYACEVTHQGLSSPVTKSFNRGEC
modifications: CDR sequences
- Masseter maximum force (delta7 mice [1]; at 80, 100, and 150 Hz, delta 7 mice + high dose SMN-C1 (3 mg/kg PND1-52), vs SMA Vehicle): increased
- Masseter function (delta7 mice [1]; delta 7 mice + high dose SMN-C1 (3 mg/kg PND1-52), main effect p=0.048 vs SMA Vehicle): improved
- Masseter function (maximum force) (delta7 mice [1]; delta 7 mice + low dose SMN-C1 (0.1 mg/kg PND1-52), vs SMA Vehicle): no effect
- Masseter function (maximum force) (delta7 mice [1]; [7]): no effect
- Tolerability [2]: well-tolerated
- Plantarflexor muscle function (maximum torque) (delta7 mice [3]; delta 7 mice + high dose SMN-C1 (3 mg/kg PND1-52), GYM329 3 mg/kg SC weekly): not significantly affected
- Plantarflexor muscle function (maximum torque) (delta7 mice [3]; delta 7 mice + low dose SMN-C1 (0.1 mg/kg PND1-52), 3 mg/kg SC weekly, main effect p=0.078 vs SMA Vehicle): trend for improvement
- Plantarflexor muscle function (maximum torque) (delta7 mice [3]; delta 7 mice + low to high dose SMN-C1 (0.1 mg/kg PND1-23, 3 mg/kg PND24-52), GYM329 3 mg/kg SC weekly): no effect
- Muscle fiber types (delta7 mice [4]; [8]): no significant differences
- Mean fiber cross-sectional area (delta7 mice [4]; [9]): increased
- Type IIB fiber cross-sectional area (delta7 mice [4]; [9]): increased
- Muscle fiber cross-sectional area (delta7 mice [4]; [10]): no differences
- Muscle fiber type percentages (delta7 mice [4]; [10]): no differences
- Muscle fiber cross-sectional area (delta7 mice [4]; [7]): not affected
- Muscle fiber type composition (delta7 mice [4]; [7]): not affected
- Body weights (delta7 mice [5]; [11]): significantly increased
- Gastrocnemius weight (delta7 mice [5]; [11]): significantly increased
- Soleus weight (delta7 mice [5]; [11]): significantly increased
- TA weight (delta7 mice [5]; [11]): significantly increased
- Body weight (delta7 mice [5]; delta 7 mice + low dose SMN-C1 (0.1 mg/kg IP QD PND1-52), GYM329 3 mg/kg SC weekly from PND24, vs SMA Vehicle): not significantly increased
- Gastrocnemius weight (delta7 mice [5]; delta 7 mice + low dose SMN-C1 (0.1 mg/kg PND1-52), GYM329 3 mg/kg SC weekly, PND52, p=0.061): trend for increased
- Muscle weights (delta7 mice [5]; delta 7 mice + low dose SMN-C1 (0.1 mg/kg PND1-52), GYM329 3 mg/kg SC weekly, PND52, vs SMA Vehicle): did not significantly affect
- Muscle weights (delta7 mice [5]; delta 7 mice + low to high dose SMN-C1 (0.1 mg/kg PND1-23, 3 mg/kg PND24-52), GYM329 3 mg/kg SC weekly, PND52): not affected
- Cortical bone parameters (delta7 mice [6]; [12]): no effect
- Trabecular bone parameters (delta7 mice [6]; [12]): no effect
- Bone volume (trabecular) (delta7 mice [6]; [8]): improved
- Cortical cross-sectional thickness (delta7 mice [6]; [8]): improved
- Mean total cross-sectional bone area (cortical) (delta7 mice [6]; [8]): improved
- Trabecular number (delta7 mice [6]; [8]): improved
- Trabecular separation (delta7 mice [6]; [8]): improved
- Trabecular thickness (delta7 mice [6]; [8]): improved
- Cross-sectional thickness in cortical bone (delta7 mice [6]; [7]): improved
- Mean total cross-sectional bone area in cortical bone (delta7 mice [6]; [7]): improved
- Trabecular bone parameters (delta7 mice [6]; [7]): no effect

Source: US20240358704A1, “COMBINED ADMINISTRATION” (Hoffmann-La Roche Inc., priority 2021, published 2024)
